Results on one molecule are retold here after US20230036503A1, “Fusion Protein, Amino Acid Sequence Thereof, Coding Nucleotide Sequence Thereof, Preparation Method Thereof and Use Thereof” (priority 2019, published 2023).

The test system of the experiment is Fusarium graminearum. Type of experiment: in vivo. Conditions: corn leaves, 100 nM.

B1: His-MP7: heptapeptide fusion protein, SEQ ID NO: 15: elf18, csp22, flg22, flgII-28, nlp20, pep1, pip1 in sequence, linkers GAG and AGA, HIS tag (protein)
chain: MGSSHHHHHHSSGLVPRGSHMASMTGGQQMGRDPNSSSVDKLSKEKFERTKPHVNVGTIGGAGAVGTVKWFNAEKGFGFITPDDGAGAQRLSTGSRINSAKDDAAGLQIAGAGESTNILQRMRELAVQSRNDSNSATDREAGAGAIMYSWYFPKDSPVTGLGHRAGAATKVKAKQRGKEKVSSGRPGQHNAGARLASGPSPRGRGH
modifications: his-MP7
Under “3-4 days, untreated 12.3%”, B1 gave a scab area percentage of 3.6%. Also, where the note is “versus untreated”, the “infection rate of Fusarium graminearum lowered by” value stood at 70.8%.
